This note sets out measurements from patent US20260085127A1 (BRIGHTPATH BIOTHERAPEUTICS, published 2026).

Substitutions are numbered along the chain they refer to. Names and notes keep the numbering of the source.

Sequences and labels used below:
B1: mAnE67_LA (antibody, V domains shown)
VH: EVQLVESGGGLVKPGGSRKLSCAASGFTFSDYGMHWVRQAPEKGLEWVAYISSGSSIIYYADTVKGRFTISRDNAKNTLFLQMTGLRSEDTAMYYCARKDYPYAMDYWGQGTSLAVSS
VL: SIVMTQTPKFMSTSVGDRVSVTCKASQNVGTNVAWYQQKPGQSPKALIYWASNRFTGVPDRFTGSGSGTDFTLTISNVQSEDLADYFCQQYSSSPYTFGSGTKLEIK
notes: also called IgG1-LALA antibody of anti-CD39 antibody mAnE67
B2: T86_sc (antibody)
scFv: QIQLVQSGPELKKPGETVKISCEASGYTFINYGMNWVKQAPGKGLKWMGWINTYTGEPTYADDFKGRFAFSLETSANTAYLQINNLKNEDTATYFCARKGYYGYPNYYAMDYWGQGTSVTVSSGGGGSGGGGSGGGGSGGGGSDIVMTQSQKFMSTSVGDRVSITCKASQNVGTAVAWYQQKPGQSPKLLIYSASNRYTGVPDRFTGSGSGTDFTLTISNMQSEDLADYFCQQYSSYPITFGTGTKLEIK
notes: scFv-Fc homodimer, anti-CD39 (mouse variable regions); also called scFv-Fc homodimeric antibody of anti-CD39_scFv antibody T86; not shown: linker and Fc-LALA (human IgG1 Fc with L234A and L235A)
B3: I67_LA (antibody, V domains shown)
VH: DVQLQESGPSLVQPSQSLSINCTVSGFSLSSYGVHWVRQSPGKGLEWLGVIWRRGSTDYNAAFMSRLSITKDNSKSQVFFKMNRLQADDTATYYCAKGISTATSWFAYWGQGTLVTVSA
VL: DIVMTQSHKFMSTSVGDRVSVTCKASQNVGTNVAWYQQKPGQSPKALIYSASYRYSGVPDRFTGSGSGTDFTLTISNVQSEDLAEYFCQQYNSYPLTFGAGTKLELK
notes: also called IgG1-LALA antibody of anti-CD39 antibody I67
B4: Tre291_LA (antibody, V domains shown)
VH: QVQLKQSGPGLVQPSQSLSITCTVSGFSLTSYGVHWVRQSPGKGLEWLGVIWRRGSTDYNAAFMSRLSITKDTSKSQVFFKMNSLQTDDTAIYYCAGVRGDAMDYWGQGTSVTVSS
VL: B3 VL with F10S, A100G, L106I
B5: T86_LA (antibody, V domains shown)
VH: QIQLVQSGPELKKPGETVKISCEASGYTFINYGMNWVKQAPGKGLKWMGWINTYTGEPTYADDFKGRFAFSLETSANTAYLQINNLKNEDTATYFCARKGYYGYPNYYAMDYWGQGTSVTVSS
VL: DIVMTQSQKFMSTSVGDRVSITCKASQNVGTAVAWYQQKPGQSPKLLIYSASNRYTGVPDRFTGSGSGTDFTLTISNMQSEDLADYFCQQYSSYPITFGTGTKLEIK
notes: also called IgG1-LALA antibody of anti-CD39 antibody T86
B6: I67_sc (antibody)
scFv: DVQLQESGPSLVQPSQSLSINCTVSGFSLSSYGVHWVRQSPGKGLEWLGVIWRRGSTDYNAAFMSRLSITKDNSKSQVFFKMNRLQADDTATYYCAKGISTATSWFAYWGQGTLVTVSAGGGGSGGGGSGGGGSGGGGSDIVMTQSHKFMSTSVGDRVSVTCKASQNVGTNVAWYQQKPGQSPKALIYSASYRYSGVPDRFTGSGSGTDFTLTISNVQSEDLAEYFCQQYNSYPLTFGAGTKLELK
notes: scFv-Fc homodimer, anti-CD39 (mouse variable regions); also called scFv-Fc homodimeric antibody of anti-CD39_scFv antibody I67; not shown: linker and Fc-LALA (human IgG1 Fc with L234A and L235A)
B7: T86_Hu003_Ct (bispecific antibody)
chain 1: B2 scFv
chain 2: QVQLQESGGGLVKPGGSLKLSCAASGFTFSSYYMSWVRQTPDKRLEWVATISNSGGSTYYPDSVKDRFTISRDNAKNTLYLQMSSLKSEDTAMYYCARDPYYTNYVPMDYWGQGTMVTVSSGGGGSGGGGSGGGGSGGGGSDIVMTQSPSFLSASVGDRVTITCKASQYVDTYVAWYQQRPGKAPKPLIYSASTRHTGVPSRFSGSGSGTEFTLTISSLQPEDFATYFCAQYSSSPLTFGGGTKLELK
B8: 6-3hIG_Hu003_Ct (bispecific antibody)
chain 1: QVQLVQSGAELVKPGASVKLSCKASGFSIKDTYVHWVKQAPGKGLEWIGKIDPANVNTKFDPKFQGRVTITADTSTNTAYLQLSSLRSEDTAVYYCALYGYDDDAYYFDYWGQGTLVTVSSGGGGSGGGGSGGGGSGGGGSEIVLTQSPASLSVSPGERATISCRASESVDNYGISFMNWFQQKPGQAPKLLIYAASNQGSGVPARFSGSGSGTDFTLTISSLEPEDFAVYYCQQSKEVPYTFGQGTKLEIK
chain 2: B7 chain 2
B9: mAnE67_Hu003_Ct (bispecific antibody)
chain 1: EVQLVESGGGLVKPGGSRKLSCAASGFTFSDYGMHWVRQAPEKGLEWVAYISSGSSIIYYADTVKGRFTISRDNAKNTLFLQMTGLRSEDTAMYYCARKDYPYAMDYWGQGTSLAVSSGGGGSGGGGSGGGGSGGGGSSIVMTQTPKFMSTSVGDRVSVTCKASQNVGTNVAWYQQKPGQSPKALIYWASNRFTGVPDRFTGSGSGTDFTLTISNVQSEDLADYFCQQYSSSPYTFGSGTKLEIK
chain 2: B7 chain 2
B10: I67_Hu003_Ct (bispecific antibody)
chain 1: B6 scFv
chain 2: B7 chain 2
B11: Tre291_Hu003_Ct (bispecific antibody)
chain 1: QVQLKQSGPGLVQPSQSLSITCTVSGFSLTSYGVHWVRQSPGKGLEWLGVIWRRGSTDYNAAFMSRLSITKDTSKSQVFFKMNSLQTDDTAIYYCAGVRGDAMDYWGQGTSVTVSSGGGGSGGGGSGGGGSGGGGSDIVMTQSHKSMSTSVGDRVSVTCKASQNVGTNVAWYQQKPGQSPKALIYSASYRYSGVPDRFTGSGSGTDFTLTISNVQSEDLAEYFCQQYNSYPLTFGGGTKLEIK
chain 2: B7 chain 2

The first assay concerns the target T1, human CD39 (Accession No. NM_001776.6) expressed on cells (human, UniProt P49961 1-510).
T1 construct: whole, on cells; On Jurkat, 293T or SK-MEL28 cells; also called Jurkat/CD39; 293T/CD39
T1 sequence (looked up): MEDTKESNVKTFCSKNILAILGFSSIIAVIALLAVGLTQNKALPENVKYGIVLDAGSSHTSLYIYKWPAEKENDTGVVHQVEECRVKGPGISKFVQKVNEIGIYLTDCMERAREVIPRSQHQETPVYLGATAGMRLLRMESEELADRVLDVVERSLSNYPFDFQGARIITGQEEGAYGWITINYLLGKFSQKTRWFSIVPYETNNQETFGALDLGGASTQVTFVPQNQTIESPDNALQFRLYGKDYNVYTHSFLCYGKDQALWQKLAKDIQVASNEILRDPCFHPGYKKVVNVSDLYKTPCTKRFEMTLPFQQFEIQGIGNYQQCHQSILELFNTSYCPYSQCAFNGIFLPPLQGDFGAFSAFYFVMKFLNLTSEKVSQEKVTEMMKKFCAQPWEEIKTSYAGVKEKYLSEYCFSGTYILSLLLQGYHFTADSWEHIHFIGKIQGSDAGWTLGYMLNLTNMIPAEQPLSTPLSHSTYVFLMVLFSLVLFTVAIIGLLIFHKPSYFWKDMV
Description: flow cytometry, 293T/TIM-3 + CD39 cells, KD from MFI.
On to B1, for which the Kd (usually the concentration at which binding is half-saturated) is 3.66 nM.
On the same count and under the same terms, the value for B2 was 16.9 nM; that for B3 was 4.19 nM; that for B4 was 4.79 nM.
Turning to B5, the Kd was 5.09 nM.
Turning to B6, the Kd is 6.8 nM.

In the next assay the target is T2, human TIM-3 (Accession No. JX049979.1) stably expressed on cells (human, UniProt Q8TDQ0 22-301).
T2 construct: whole, on cells; On Jurkat or 293T cells; also called Jurkat/TIM-3; 293T/TIM-3
Description: flow cytometry, Jurkat/TIM-3 cells, KD from MFI. Background: In flow cytometry, cells or beads pass a laser one at a time.
Consider B7, for which binding was put at a Kd of 2.77 nM.
Molecule B8 registered a dissociation constant (Kd) of 1.92 nM.
In turn, B9 had a dissociation constant Kd of 1.49 nM.
On to B10, for which the dissociation constant (Kd) was 1.86 nM.
As for B11, the Kd came to 2.13 nM.

The target in another assay is T1, human CD39 (Accession No. NM_001776.6) …. Description: flow cytometry, Jurkat/CD39 cells, KD from MFI.
In turn, B7 gave a dissociation constant (Kd) of 18.8 nM.
On the same count and under the same terms, the value for B2 was 2.18 nM; that for B8 was 237 nM; that for B9 was 2.69 nM.
For B10, binding was characterised by a dissociation constant (Kd) of 14.1 nM.
In the case of B11, the Kd stood at 22.6 nM.
In the case of B6, the dissociation constant (Kd) came out at 0.329 nM.

The target in a further assay is T3, biotinylated human TIM-3-Fc antigen (in-house product, SEQ ID No: 118) (human, biotinylated). Description: competition ELISA: human Galectin-9 coated, biotinylated human TIM-3-Fc pre-mixed with the antibody dilution series, Streptavidin-HRP, A450; blocked ligand: human Galectin-9. A general note: In an ELISA, binding on a coated surface is turned into a signal by an enzyme label.
For B7, the “IC50 (read off the curve)” value is around 2 nM.
With B8, the “IC50 (read off the curve)” value is around 2 nM.
As for B10, the “IC50 (read off the curve)” value is around 2 nM.
B11: the “IC50 (read off the curve)” value was around 1 nM.

Another assay addresses T1, human CD39 (Accession No. NM_001776.6) …. Description: flow cytometry, 293T/CD39 cells, KD from MFI.
In the case of B1, the dissociation constant Kd was 1.8 nM.
For B2, the affinity, expressed as Kd, was 3.56 nM.
For the molecule B3, the Kd worked out at 1.73 nM.
B4 yielded a dissociation constant (Kd) of 2.44 nM.
Take B5: binding was characterised by a dissociation constant (Kd) of 2.67 nM.
In turn, B6 had a dissociation constant (Kd) of 2.37 nM.

The target in another assay is T4, recombinant human CD39 (in-house product, 38 to 478 aa of Accession No. NM_001776.6) (human, UniProt P49961 38-478).
T4 construct: also called rhCD39; human CD39-ECD; not shown: Myc and His tags at the C-terminus are named only for the PE-lab
T4 sequence (looked up): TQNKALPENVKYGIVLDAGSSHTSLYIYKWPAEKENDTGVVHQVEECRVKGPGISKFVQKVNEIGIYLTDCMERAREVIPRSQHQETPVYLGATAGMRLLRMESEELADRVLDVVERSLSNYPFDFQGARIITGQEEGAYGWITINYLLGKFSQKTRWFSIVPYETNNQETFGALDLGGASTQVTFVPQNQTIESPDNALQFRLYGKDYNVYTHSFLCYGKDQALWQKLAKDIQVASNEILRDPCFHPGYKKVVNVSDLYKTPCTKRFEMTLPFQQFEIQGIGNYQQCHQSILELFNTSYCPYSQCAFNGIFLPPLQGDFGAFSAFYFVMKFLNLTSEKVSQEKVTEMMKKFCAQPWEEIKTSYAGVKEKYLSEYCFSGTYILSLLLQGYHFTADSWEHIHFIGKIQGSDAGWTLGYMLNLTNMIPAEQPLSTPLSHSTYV
Description: SPR Biacore8K, antibody captured on anti-human IgG, antigen as analyte. In general terms: In SPR one partner is held on a chip, and binding of the other changes the refractive index at the surface.
On to B7, for which the Kd is 1.74 nM.
B2: the dissociation constant Kd is 4.28 nM; the koff (as a rule, the rate constant with which the complex falls apart) stood at 0.000823 s⁻¹; the kon (usually the second-order rate constant of association) came out at 192000 M⁻¹ s⁻¹.
Turning to B8, the Kd stood at 0.355 nM.
As to B9, the Kd was 2.26 nM.
Regarding B10, the dissociation constant Kd stood at 1.63 nM.
B11: the equilibrium dissociation constant (Kd) is 2.79 nM.
B6: the equilibrium dissociation constant (Kd) was found to be 1.65 nM, the koff came to 0.00294 s⁻¹ and the association rate constant (kon) came out at 1.78e+06 M⁻¹ s⁻¹.

Another assay has as its target T1, human CD39 (Accession No. NM_001776.6) …. Description: flow cytometry, Jurkat/TIM-3 + CD39 cells, KD from MFI.
In the case of B2, the Kd worked out at 2.25 nM.
On the same count and under the same terms, the value for B6 was 0.208 nM.

For another assay, the target named is T3, biotinylated human TIM-3-Fc antigen …. Description: flow cytometry, inhibition of biotinylated TIM-3-Fc binding to phosphatidylserine on apoptotic Jurkat cells.
Turning to B7, the IC50 (usually the point on the concentration scale where inhibition reaches its midpoint) is 30.8 nM.
For B8, the half-inhibitory concentration (IC50) was 16.1 nM.
B9 gave an IC50 of 24.7 nM.
On the same count and under the same terms, the value for B10 was 27.2 nM; that for B11 was 28.3 nM.
